Results on one substance are retold here after PMC7190724, “Improved GPCR ligands from nanobody tethering” (Nature Communications, 2020).

This experiment concerns the target PTHR1_(YFPΔECD).

VHHGFP-PTH(1-9): the cAMP response (cAMP-activated luciferase luminescence) at the highest concentration tested, 100 nM, against the maximal response observed; precise EC50 could not be obtained (% of the maximal response) came to 40.
